# Square brackets hold non-standard residues; d marks the D form. Side chains are listed from the residue outwards. Ends that are not written are not given here. * marks the point of attachment. Biotin = O=C1N[C@H]2[C@H](CS[C@H]2CCCCC(=O)*)N1; Bpa = N[C@@H](Cc1ccc(C(=O)c2ccccc2)cc1)C(=O)O; PEG linker = not defined here
# Key:
# [1] = target: HLA-A0201 MHC class I molecule on T2 cells (human (endogenous in T2) | human); assay: flow cytometry on cells; internalization study: T2 cells with 1 uM biotinylated peptide at 37 degrees, peptide left on; surface peptide by anti-biotin staining at 2, 6 and 24 h
# [2] = target: HLA-A0201 MHC class I molecule on T2 cells (human (endogenous in T2) | human); assay: flow cytometry on cells; T2 cells treated with 1 uM biotinylated peptide for 16 hours, then exposed to UV light; peptide on the cell surface stained with anti-biotin AlexaFluor 488 antibody
# [3] = target: HLA-A0201 MHC class I molecule on T2 cells (human (endogenous in T2) | human); assay: flow cytometry on cells; T2 cells treated with 1 uM biotinylated peptide for 16 hours, no UV; peptide on the cell surface stained with anti-biotin AlexaFluor 488 antibody
# [4] = target: HLA-A0201 MHC class I molecule on T2 cells (human (endogenous in T2) | human); assay: flow cytometry on cells; internalization study (pulse-chase): T2 cells with 1 uM biotinylated peptide for 2 hr at 37 degrees, washed twice, incubated a further 4 or 22 hours; surface peptide by anti-biotin staining
binder,measurement,setting,value
[Bpa]LGEQ([PEG linker-Biotin])QYSV (reading uncertain) [WT1B-S1Fbz-bio],mean fluorescence (anti-biotin) at 2 h,[1],8.74
same,mean fluorescence (anti-biotin) at 6 h,[1],44.4
same,mean fluorescence (anti-biotin) at 24 h,[1],23.4
same,mean fluorescence (anti-biotin),[2],43.2
same,mean fluorescence (anti-biotin),[3],41.5
same,"mean fluorescence (anti-biotin) at 6 h, washed after 2 h",[4],6.69
